From publication PMC10089660

Columns and labels:
[1] = ATF6 ELISA of Golgi/ER fraction, immunofluorescence; conditions: glycan lost; control: PON1-WT
[2] = trypsin sensitivity, PON1 ELISA, H1993-GR Golgi/ER fraction; conditions: glycan lost; control: PON1-WT
[3] = intracellular arylesterase activity, H1993-GR; conditions: glycan lost; control: PON1-WT
[4] = intracellular paraoxonase activity, H1993-GR; conditions: glycan lost; control: PON1-WT
[5] = trypsin sensitivity, PON1 ELISA, PON1-overexpressing cells Golgi/ER; conditions: glycan lost; control: PON1-WT
[6] = sandwich ELISA of IL-6, TNF-α, GM-CSF; conditions: glycan lost; control: PON1-WT
[7] = trypsin sensitivity, PON1 ELISA, A549 Golgi/ER fraction; conditions: glycan lost; control: PON1-WT
OxiSelect ROS/RNS assay = conditions: glycan lost; control: PON1-WT
[8] = SRB drug sensitivity assay; conditions: glycan lost; control: PON1-WT
[9] = ELISA of secretome PON1, H1993-GR; conditions: glycan lost; control: PON1-WT
[10] = CHX chase, immunoblot, PON1 remaining, H1993-GR; conditions: glycan lost; control: PON1-WT
[11] = paraoxonase activity, H1993-GR Golgi/ER fraction; conditions: glycan changed form; control: siControl
[12] = ELISA of secretome PON1, PNGase F in culture; conditions: glycan lost; control: untreated

B1: paraoxonase 1 (PON1): N253G (protein)
parent chain: MAKLIALTLLGMGLALFRNHQSSYQTRLNALREVQPVELPNCNLVKGIETGSEDLEILPNGLAFISSGLKYPGIKSFNPNSPGKILLMDLNEEDPTVLELGITGSKFDVSSFNPHGISTFTDEDNAMYLLVVNHPDAKSTVELFKFQEEEKSLLHLKTIRHKLLPNLNDIVAVGPEHFYGTNDHYFLDPYLQSWEMYLGLAWSYVVYYSPSEVRVVAEGFDFANGINISPDGKYVYIAELLAHKIHVYEKHANWTLTPLKSLDFNTLVDNISVDPETGDLWVGCHPNGMKIFFYDSENPPASEVLRIQNILTEEPKVTQVYAENGTVLQGSTVASVYKGKLLIGTVFHKALYCEL
other: ATF6 level in co-cultured DR clones [1]: increases
stability_or_folding [2]: decreases
enzymatic_activity [3]: decreases
enzymatic_activity [4]: no change
stability_or_folding [5]: decreases
other: secretome cytokine levels [6]: increases
stability_or_folding [7]: no change
other: ROS/RNS in admixture secretome (OxiSelect ROS/RNS assay): increases
other: EGFR-TKI resistance of GR and ER clones [8]: decreases
expression_or_secretion [9]: decreases
degradation_or_half_life [10]: decreases

B2: paraoxonase 1 (PON1): SLC35C1 RNAi (protein)
parent chain: MAKLIALTLLGMGLALFRNHQSSYQTRLNALREVQPVELPNCNLVKGIETGSEDLEILPNGLAFISSGLKYPGIKSFNPNSPGKILLMDLNEEDPTVLELGITGSKFDVSSFNPHGISTFTDEDNAMYLLVVNHPDAKSTVELFKFQEEEKSLLHLKTIRHKLLPNLNDIVAVGPEHFYGTNDHYFLDPYLQSWEMYLGLAWSYVVYYSPSEVRVVAEGFDFANGINISPDGKYVYIAELLAHKIHVYEKHANWTLTPLKSLDFNTLVDNISVDPETGDLWVGCHPNGMKIFFYDSENPPASEVLRIQNILTEEPKVTQVYAENGTVLQGSTVASVYKGKLLIGTVFHKALYCEL
enzymatic_activity [11]: no change

B3: paraoxonase 1 (PON1): N324G (protein)
parent chain: MAKLIALTLLGMGLALFRNHQSSYQTRLNALREVQPVELPNCNLVKGIETGSEDLEILPNGLAFISSGLKYPGIKSFNPNSPGKILLMDLNEEDPTVLELGITGSKFDVSSFNPHGISTFTDEDNAMYLLVVNHPDAKSTVELFKFQEEEKSLLHLKTIRHKLLPNLNDIVAVGPEHFYGTNDHYFLDPYLQSWEMYLGLAWSYVVYYSPSEVRVVAEGFDFANGINISPDGKYVYIAELLAHKIHVYEKHANWTLTPLKSLDFNTLVDNISVDPETGDLWVGCHPNGMKIFFYDSENPPASEVLRIQNILTEEPKVTQVYAENGTVLQGSTVASVYKGKLLIGTVFHKALYCEL
stability_or_folding [2]: decreases
other: EGFR-TKI resistance of GR and ER clones [8]: decreases
expression_or_secretion [9]: decreases

B4: paraoxonase 1 (PON1): PNGase F (protein)
parent chain: MAKLIALTLLGMGLALFRNHQSSYQTRLNALREVQPVELPNCNLVKGIETGSEDLEILPNGLAFISSGLKYPGIKSFNPNSPGKILLMDLNEEDPTVLELGITGSKFDVSSFNPHGISTFTDEDNAMYLLVVNHPDAKSTVELFKFQEEEKSLLHLKTIRHKLLPNLNDIVAVGPEHFYGTNDHYFLDPYLQSWEMYLGLAWSYVVYYSPSEVRVVAEGFDFANGINISPDGKYVYIAELLAHKIHVYEKHANWTLTPLKSLDFNTLVDNISVDPETGDLWVGCHPNGMKIFFYDSENPPASEVLRIQNILTEEPKVTQVYAENGTVLQGSTVASVYKGKLLIGTVFHKALYCEL
expression_or_secretion [12]: no change
